{"source": "paper PMC4643876", "about": "(2015)", "key": {"[1]": {"molecular_target": "T1, GFP-tagged Plasmepsin V (PmV-GFP), P. falciparum clone DC6 (Plasmodium falciparum)", "T1 sequence (Q8I6Z5 whole entry)": "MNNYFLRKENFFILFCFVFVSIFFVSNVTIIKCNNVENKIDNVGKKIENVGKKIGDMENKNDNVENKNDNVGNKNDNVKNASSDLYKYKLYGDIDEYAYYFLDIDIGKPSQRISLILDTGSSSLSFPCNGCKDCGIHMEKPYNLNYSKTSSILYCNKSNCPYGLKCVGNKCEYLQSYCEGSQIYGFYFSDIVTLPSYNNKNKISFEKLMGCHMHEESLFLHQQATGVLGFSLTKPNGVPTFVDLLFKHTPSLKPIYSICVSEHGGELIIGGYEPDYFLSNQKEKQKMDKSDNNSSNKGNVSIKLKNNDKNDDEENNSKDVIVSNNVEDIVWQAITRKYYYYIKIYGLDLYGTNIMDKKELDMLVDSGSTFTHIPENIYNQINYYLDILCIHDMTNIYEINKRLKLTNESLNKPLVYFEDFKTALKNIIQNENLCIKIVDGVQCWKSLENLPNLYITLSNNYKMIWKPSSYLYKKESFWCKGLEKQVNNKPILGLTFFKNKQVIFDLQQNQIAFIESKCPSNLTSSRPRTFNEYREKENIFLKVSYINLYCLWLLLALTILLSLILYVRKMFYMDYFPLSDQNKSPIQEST", "assay": "3 uM HRPII-PExEl substrate"}, "[2]": {"molecular_target": "T1, GFP-tagged Plasmepsin V (PmV-GFP), P. …"}, "[3]": {"molecular_target": "T1, GFP-tagged Plasmepsin V (PmV-GFP), P. …", "assay": "3 uM HRPII-PExEl substrate", "remark": "listed apart in the source"}, "[4]": {"molecular_target": "T1, GFP-tagged Plasmepsin V (PmV-GFP), P. …", "remark": "listed apart in the source"}, "[5]": {"molecular_target": "T1, GFP-tagged Plasmepsin V (PmV-GFP), P. …", "assay": "3 uM HRPII-PExEl substrate", "remark": "listed apart in the source"}}, "note": "Where two headings read alike, the source gives them in different places. Ends that are not written are not given here. * marks the point of attachment. Biotin = O=C1N[C@H]2[C@H](CS[C@H]2CCCCC(=O)*)N1; Octanoyl = CCCCCCCC(=O)*; GABA = NCCCC(=O)O", "data": [{"binder": "RLLYEA (not fully specified; also: HEA isostere replaces the Leu3-Tyr4 peptide bond)", "note": "[Compound 7a]", "values": [{"measurement": "IC50", "setting": "[1]", "result": 1.38, "unit": "nM"}, {"measurement": "Ki", "setting": "[2]", "result": 0.74, "unit": "nM"}]}, {"binder": "{Biotin-GABA-GABA}-RLLAEA (also: hydroxyethylamino (HEA) isostere in place of peptide bond Leu3-Ala4)", "note": "[Compound 36, a biotinylated version of Compound 1]", "values": [{"measurement": "IC50", "setting": "[3]", "result": 41.9, "unit": "nM"}, {"measurement": "Ki", "setting": "[4]", "result": 22.5, "unit": "nM"}]}, {"binder": "RLLAEA (also: hydroxyethylamino (HEA) isostere in place of peptide bond Leu3-Ala4)", "note": "[Compound 1 (LG20), RL[L~A]EA]", "values": [{"measurement": "IC50", "setting": "[5]", "result": 0.37, "unit": "nM"}]}, {"binder": "Octanoyl-RLLYEA (also: hydroxyethylamino (HEA) isostere in place of peptide bond Leu3-Tyr4, carbinol S)", "note": "[Compound 37a (octanoyl group at the N-terminus of Compound 7a)]", "values": [{"measurement": "Ki", "setting": "[4]", "result": 0.01, "unit": "nM"}]}]}
